Values joined by “and” are separate entries in the source; they are usually repeats but may differ in a detail not shown here. Equal entries are not always repeated. Where two headings read alike, the source gives them in different places.
B1: mSA-RF: monomeric streptavidin mutant SEQ ID NO: 3, S25R and T48F (protein)
chain: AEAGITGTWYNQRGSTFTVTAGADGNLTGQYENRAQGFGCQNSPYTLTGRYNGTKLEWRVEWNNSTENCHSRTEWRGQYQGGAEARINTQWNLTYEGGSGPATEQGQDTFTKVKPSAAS
modifications: Modified streptavidin
B2: Brad2: bradavidin 2, streptavidin homolog, SEQ ID NO: 21 (protein, listed as Bradyrhizobium japonicum)
chain: QGLPAPSYWKNERGSELLIWSANSGTIQGTFTNHAQGFACQGIPYPAAGSVSPTGLYFVVTFAQCNSFTRWVGTIKGSQMPTSWTLFYVDNKGKPSRLKGGDIFTRVW

Experiments:
[1] = Circular dichroism spectroscopy, thermal denaturation; format: physicochemical
Protocol: (§1) FIG. 4. In vitro characterization of purified mSA mutants. a) Stability of mSA-RF and mSA-RWT in PBS was measured by circular dichroism spectroscopy with or without biotin. b) Fluorescence polarization spectroscopy was used to measure the dissociation rate of biotin-fluorescein. The dissociation rate, koff, was computed by fitting normalized fluorescence polarization data, or bound fraction f, to an exponentially decaying function, i.e. ƒ=e^−k^off^*t The measurements were taken at 37° C. c) The equilibrium affinity of binding Kd between mSA-RF and biotin-fluorescein was measured by FP. d) mSA-S25H and mSA-RF were analyzed by size exclusion chromatography to estimate their molecular weights in solution. Each mutant eluted with a retention time that was consistent with monomeric streptavidin. The molecular weight standards (arrows) correspond to 66.0, 29.0, 12.4 and 6.5 kDa from left to right.
FIG. 8. Circular dichroism spectra of mSA-RF after low pH treatment to release bound biotin is shown in a). mSA-RF was first buffer exchanged to 100 mM glycine (pH 2.3) and then back to PBS (pH 7.5) before CD analysis. The spectra obtained at temperatures 30, 40, 50, 60, 70, and 80° C. were overlaid. The spectra at lower temperatures were colored darker than the spectra at higher temperatures, i.e. the darkest for 30° C. and the lightest for 80° C. The CD values at 235 nm (from FIG. 8a) were used to compute the unfolded fraction shown in b).
FIG. 9. To evaluate the importance of the biotin additive, mSA was induced without biotin in the medium as shown in a). The culture medium was then pH adjusted to 7.5 and poured over Ni-NTA resin, which immediately turned brown (not shown). 1. Culture medium, 2. Flow through after Ni-NTA, 3. Wash, 4. Elution. The amount of purified mSA was approximately 20% of the expressed protein. (*) mSA. Thermal denaturation of mSA-RF purified with (circle) and without (square) biotin in the medium is shown in b).
Purified mSA was diluted to 15 μM in PBS and loaded in a quartz cuvette with 1.0 mm path length. […]

[2] = test system: HEK293 cells displaying biotinylated AP-CFP; test: Fluorescent labeling of cell surface biotinylated receptor, confocal microscopy; format: cell-based
Text: FIG. 5. Fluorescent labeling of HEK293 cells displaying biotinylated receptor. a) HEK293 cells displaying biotinylated AP-CFP were labeled with Alexa488-conjugated mSA-RWT and imaged by fluorescence microscopy. Fluorescence was filtered for (i) CFP and (ii) Alexa488 and the same field of vision was imaged multiple times at regular intervals to measure the stability of labeling. iii. DIC. mSA-RWT binds only CFP positive cells, indicating high specificity of interaction. b-c) HEK293 displaying unrelated protein fused to CFP b) or untransfected HEK293 c) were treated with purified BirA and then labeled with fluorescent mSA-RWT as in part (a) (i)-(iii) the same as before. d) The captured fluorescence images of mSA-RWT—Alexa488 labeled cells (in jpg format) were loaded into MatLab and the amount of CFP and Alexa488 fluorescence was quantified by summing over pixel values. The fluorescence intensity was normalized with respect to the value at t=0. e) Cells labeled with mSA-RF—EGFP were similarly imaged and analyzed to determine the time dependent loss of mSA labeling.
Adherent HEK293 cells were seeded in a 24 well plate (Becton Dickinson) and grown in DMEM supplemented with 10% FBS and antibiotic/antimycotic (Invitrogen). At 50% confluency, the cells were transfected with a plasmid containing pDisplay-AP-CFP-TM. After 2 days the wells were supplemented with 100 nM purified BirA, 5 mM ATP, and 0.3 mM biotin and the biotinylation reaction was carried out overnight. The following morning, the cells were detached from the wells using EDTA Solution (Versene from Life Technologies), washed with PBS containing 0.1% w/v BSA (PBSF), and fixed in 4% paraformaldehyde solution. Prior to microscopy, cells were labeled with 1 μM mSA-RWT—Alexa488 or 1 μM mSA-RF—EGFP in PBSF for 30 minutes. Excess protein was washed away and cells were switched to PBSF with 0.9 mM biotin. Each sample was mounted on slides and imaged using confocal microscopy. The same field of view was imaged every 10 min for 60 min to quantify fluorescence loss as a function of time. The captured images were analyzed with microscope software (ZEN from Zeiss, and MatLab® from MathWorks).
We tested the use of mSA-RWT or mSA-RF in cell imaging, in which biotinylated proteins on the cell surface were labeled with Alexa488 conjugated mSA-RWT or mSA-RF fused to EGFP, and imaged by fluorescence confocal microscopy. Cell imaging is an important test of whether engineered mutants can specifically interact with biotinylated ligands in a heterogeneous environment, in which other potentially competing interactions can interfere with desired detection. […]
To evaluate the stability of labeling, we imaged the labeled cells repeatedly over 1 hr and quantified the fluorescence intensity of Alexa488 or GFP at regular intervals. […]

[3] = Fluorescence polarization spectroscopy, equilibrium affinity Kd; settings: biotin-fluorescein, overnight incubation at room temperature, PBS 0.1 mg/ml BSA; read-out: equilibrium binding constant Kd
Protocol: as §1, with “Each mutant eluted with a retention time that was consistent with monomeric streptavidin. The molecular weight standards (arrows) correspond to 66.0, 29.0, 12.4 and 6.5 kDa from left to right.” left out
The binding of biotinylated fluorescein (bf, AnaSpec) was measured using a microplate reader (SpectraMax® i3 Microplate reader from Molecular Devices) in flat bottom 96 well plates (Sterilin Ltd). […] After overnight incubation at room temperature, the fluorescence polarization values were measured and fit to the quadratic binding equation (Hsu and Park, 2010, J Mol Graph Model, 29, 295-308). […] To observe dissociation of bf, excess free biotin was added to a final concentration of 100 μM and recording of fluorescence was started immediately. The intensity of polarized fluorescence was measured at various time points and normalized with respect to the value at t=0 min. […]

[4] = Fluorescence polarization spectroscopy, biotin dissociation rate (koff); format: binding; settings: 37° C.
Protocol: as §1
The binding of biotinylated fluorescein (bf, AnaSpec) was measured using a microplate reader (SpectraMax® i3 Microplate reader from Molecular Devices) in flat bottom 96 well plates (Sterilin Ltd). To measure Kd, 100 nM bf was first mixed with titrating amounts of mSA in PBS containing 0.1 mg/ml bovine serum albumin (BSA). After overnight incubation at room temperature, the fluorescence polarization values were measured and fit to the quadratic binding equation (Hsu and Park, 2010, J Mol Graph Model, 29, 295-308). To measure the off rate (koff), 10 nM bf was first mixed with 50 nM mSA and incubated for 2 hr to form a biotin-mSA complex. To observe dissociation of bf, excess free biotin was added to a final concentration of 100 μM and recording of fluorescence was started immediately. The intensity of polarized fluorescence was measured at various time points and normalized with respect to the value at t=0 min. The intensities were fit to an exponentially decaying function e^−k^off^*t to compute koff. The dissociation half-life t1/2=0.693/koff.
We measured the biotin dissociation rate of various mSA mutants by fluorescence polarization spectroscopy. Table 2 presents the biotin dissociation rate (koff) of various mutants measured by fluorescence polarization spectroscopy. The S25R mutation lowered koff by nearly 21 fold compared to the original mSA and 3.3 fold compared to the S25H mutant (Table 2, FIG. 4b).

[5] = biotin; monomer at low pH and protein concentrations; cited from earlier work

Molecule	denaturation temperature ([1]; after low pH treatment (100 mM glycine pH 2.3) and exchange back to PBS pH 7.5)	thermal unfolding behaviour ([1]; protein purified with biotin in the medium)	thermal unfolding behaviour ([1]; protein purified without biotin in the medium)	Alexa488/GFP fluorescence of labeled cells over time ([2]; after 1 hr, 900 μM biotin in the labeling solution)	labeling of cells displaying biotinylated AP-CFP ([2]; fixed HEK293 cells, 1 μM for 30 minutes)	Kd [3]	t1/2 ([4]; dissociation half-life t1/2=0.693/koff, biotin-fluorescein)	Koff(×10^−3 min^−1) ([4]; dissociation of biotin-fluorescein, excess free biotin 100 μM)	Kd [5]
B1	60 °C	clear two state unfolding transition	does not show such transition	remained high	Only CFP positive cells were labeled selectively	1.3 nM	402 min and 402 ± 18 min	1.73 ± 0.79 ×10^−3 min^−1	
B2									< 0.1 nM

— patent US10759835B2, “Monomeric streptavidin mutants, methods of using the same and processes of manufacturing proteins” (The Research Foundation for The State University of New York, priority 2016, dated 2020)
